doi:10.1101/2025.10.11.681810

Assays:
[1] = target: recombinant bank vole (BV) PrP(90–231), I109 natural polymorph (bank vole) (UniProt Q8VHV5); experiment: SEC
[2] = target: recombinant bank vole (BV) PrP(90–231), I109 natural polymorph (bank vole) (UniProt Q8VHV5); experiment: NMR diffusion

recombinant bank vole (BV) PrP(90–231), I109 natural polymorph (from UniProt Q8VHV5 90-231) (domain or fragment)
stoichiometry N [1]: 12 | stoichiometry N [2]: 16
